The subject of the assay is KDM4A-I71AzF. The assay can be described thus: CASI: photo-crosslinking with HEK293T cell extracts, StrepTactin enrichment and LC-MS/MS proteomics.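 Note: lysates from HEK293T cells pretreated with a KDM4 inhibitor to raise proteome methylation, affinity-purified after ±UV, gel-resolved, trypsin-digested, with exclusive unique peptides per protein averaged per condition.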 Type of assay: binding, human. The settings on record: sheet "Final results but with 0.01".

This note sets out measurements from PMC10540216, “Activity Guided Azide-methyllysine Photo-trapping for Substrate Profiling of Lysine Demethylases” (Journal of the American Chemical Society, 2023).

B1: RBM33_HUMAN (protein, UniProt Q96EV2 2-1170, looked up)
RNA-binding protein 33: AAALGASGGAGAGDDDFDQFDKPGAERSWRRRAADEDWDSELEDDLLGEDLLSGKKNQSDLSDEELNDDLLQSDNEDEENFSSQGVTISLNATSGMVTSFELSDNTNDQSGEQESEYEQEQGEDELVYHKSDGSELYTQEYPEEGQYEGHEAELTEDQIEYVEEPEEEQLYTDEVLDIEINEPLDEFTGGMETLELQKDIKEESDEEEEDDEESGRLRFKTERKEGTIIRLSDVTRERRNIPETLELSAEAKAALLEFEERERQHKQGRYSSRRGGRRGGPLMCRGVGDQRRESTERGRMKDHRPALLPTQPPVVPQAPPPPPPPPQQQPIRSLFQPQPLQPLLPVQHPHHPSPPQGMHMPPQLETPRMMMTPPPVTPQQPKNIHINPHFKGTVVTPVQVPLLPVPSQPRPAVGPQRFPGPPEFPQHTPGPVPNSFSQPPRLPLQDQWRAPPPPQDRDPFFLGVSGEPRFPSHLFLEQRSPPPPPPPPTLLNSSHPVPTQSPLPFTQPGPAFNQQGQQPVFPRERPVRPALQPPGPVGILHFSQPGSATTRPFIPPRQPFLPGPGQPFLPTHTQPNLQGPLHPPLPPPHQPQPQQPQQQPPPQHQPPHQPPHQPPPQHQPPPQHPPQHPPQHQHHHHHHHLSVPPPPLMPMSQPQFRPHVQTAQPQASSSRMQCPQRQGLRHNTTSQNVSKRPMQQMQPTAPRNSNLRELPIAPSHVIEMSSSRCSATPSAQVKPIVSASPPSRAVAGSRSSQGKTEVKVKPASPVAQPKEEAKTETEFPDEDEETRLYRLKIEEQKRLREEILKQKELRRQQQAGARKKELLERLAQQQQQLYAPPPPAEQEEQALSPSPTNGNPLLPFPGAQVRQNVKNRLLVKNQDVSISNVQPKTSNFVPSSANMQYQGQQMKALKHLRQTRTVPQSQTQPLHKVLPIKPADVEEPAVPQTPRVASIQGRPQDTKPGVKRTVTHRTNSGGGDGPHISSKVRVIKLSGGGGESDGFFHPEGQPQRLPQPPEVGPQPARKVTLTRGGLQQPPHLPAGPHAHSPVPPGIKSIQGIHPAKKAIMHGRGRGVAGPMGRGRLMPNKQNLRVVECKPQPCVVSVEGLSSSTTDAQLKSLLMSVGPIQSLQMLPQQRKAIAKFKEPAHALAFQQKFHRHMIDLSHINVALIVE
Turning to B1, the “Fold change (+UV/-UV)” value is 0.3333.

B2: AMOT_HUMAN (protein, UniProt Q4VCS5 1-1084, looked up)
Angiomotin: MRNSEEQPSGGTTVLQRLLQEQLRYGNPSENRSLLAIHQQATGNGPPFPSGSGNPGPQSDVLSPQDHHQQLVAHAARQEPQGQEIQSENLIMEKQLSPRMQNNEELPTYEEAKVQSQYFRGQQHASVGAAFYVTGVTNQKMRTEGRPSVQRLNPGKMHQDEGLRDLKQGHVRSLSERLMQMSLATSGVKAHPPVTSAPLSPPQPNDLYKNPTSSSEFYKAQGPLPNQHSLKGMEHRGPPPEYPFKGMPPQSVVCKPQEPGHFYSEHRLNQPGRTEGQLMRYQHPPEYGAARPAQDISLPLSARNSQPHSPTSSLTSGGSLPLLQSPPSTRLSPARHPLVPNQGDHSAHLPRPQQHFLPNQAHQGDHYRLSQPGLSQQQQQQQQQHHHHHHHQQQQQQQPQQQPGEAYSAMPRAQPSSASYQPVPADPFAIVSRAQQMVEILSDENRNLRQELEGCYEKVARLQKVETEIQRVSEAYENLVKSSSKREALEKAMRNKLEGEIRRMHDFNRDLRERLETANKQLAEKEYEGSEDTRKTISQLFAKNKESQREKEKLEAELATARSTNEDQRRHIEIRDQALSNAQAKVVKLEEELKKKQVYVDKVEKMQQALVQLQAACEKREQLEHRLRTRLERELESLRIQQRQGNCQPTNVSEYNAAALMELLREKEERILALEADMTKWEQKYLEENVMRHFALDAAATVAAQRDTTVISHSPNTSYDTALEARIQKEEEEILMANKRCLDMEGRIKTLHAQIIEKDAMIKVLQQRSRKEPSKTEQLSCMRPAKSLMSISNAGSGLLSHSSTLTGSPIMEEKRDDKSWKGSLGILLGGDYRAEYVPSTPSPVPPSTPLLSAHSKTGSRDCSTQTERGTESNKTAAVAPISVPAPVAAAATAAAITATAATITTTMVAAAPVAVAAAAAPAAAAAPSPATAAATAAAVSPAAAGQIPAAASVASAAAVAPSAAAAAAVQVAPAAPAPVPAPALVPVPAPAAAQASAPAQTQAPTSAPAVAPTPAPTPTPAVAQAEVPASPATGPGPHRLSIPSLTCNPDKTDGPVFHSNTLERKTPIQILGQEPDAEMVEYLI
For B2, the “Fold change (+UV/-UV)” value worked out at 1.125.
